Literature values in patent US20250312434A1, “LIPOPOLYSACCHARIDE (LPS) DEFICIENT ACINETOBACTER BAUMANNII M[…]” (VAXDYN S.L., priority 2021, published 2025).

Assays:
P. aeruginosa [1] = conditions: 4 intraperitoneal doses of 50 μg
[2] = test system: P. aeruginosa strain PAO1; conditions: Balb/c female mice, 4 subcutaneous doses of 50ug; intranasal PAO1
P. aeruginosa strain PAK = conditions: Balb/c female mice, 4 subcutaneous doses of 50ug; intranasal PAK
P. aeruginosa [3] = conditions: 2 intraperitoneal doses of 10 ug

purified OprI: P. aeruginosa outer membrane lipoprotein OprI, purified
LD50 in immunized versus not immunized animals (P. aeruginosa [1]): up to 35 fold

B1: rOprF: recombinant full-length OprF from P. aeruginosa expressed in Escherichia coli (protein, UniProt P13794 1-350, looked up)
chain: MKLKNTLGVVIGSLVAASAMNAFAQGQNSVEIEAFGKRYFTDSVRNMKNADLYGGSIGYFLTDDVELALSYGEYHDVRGTYETGNKKVHGNLTSLDAIYHFGTPGVGLRPYVSAGLAHQNITNINSDSQGRQQMTMANIGAGLKYYFTENFFAKASLDGQYGLEKRDNGHQGEWMAGLGVGFNFGGSKAAPAPEPVADVCSDSDNDGVCDNVDKCPDTPANVTVDANGCPAVAEVVRVQLDVKFDFDKSKVKENSYADIKNLADFMKQYPSTSTTVEGHTDSVGTDAYNQKLSERRANAVRDVLVNEYGVEGGRVNAVGYGESRPVADNATAEGRAINRRVEAEVEAEAK
modifications: full-length
notes: recombinant full-length OprF from P. aeruginosa expressed in Escherichia coli
survival at 7 days [2]: 50% | survival at 7 days (P. aeruginosa strain PAK): 60%

B2: purified OprF: purified OprF from P. aeruginosa PAO1 (protein, UniProt P13794 25-350, looked up)
Outer membrane porin F: QGQNSVEIEAFGKRYFTDSVRNMKNADLYGGSIGYFLTDDVELALSYGEYHDVRGTYETGNKKVHGNLTSLDAIYHFGTPGVGLRPYVSAGLAHQNITNINSDSQGRQQMTMANIGAGLKYYFTENFFAKASLDGQYGLEKRDNGHQGEWMAGLGVGFNFGGSKAAPAPEPVADVCSDSDNDGVCDNVDKCPDTPANVTVDANGCPAVAEVVRVQLDVKFDFDKSKVKENSYADIKNLADFMKQYPSTSTTVEGHTDSVGTDAYNQKLSERRANAVRDVLVNEYGVEGGRVNAVGYGESRPVADNATAEGRAINRRVEAEVEAEAK
protection (P. aeruginosa [3]): up to 67%
